# Experimental data published in patent US20260258115A1 (MAPP BIOPHARMACEUTICAL, published 2026).
# Numbering of substitutions follows the chain as printed.
# B1: ADI-19427 (antibody, V domains shown)
# VH: EVQLVESGGGLVKPGGSLRLSCAASGFTFSSYSMNWVRQAPGKGLEWVSSISSSSSFISYADSVKGRFTISRDSAKNSLYLQMNSLRAEDTAVYYCARDHPNWNGLAYFDYWGQGTLVTVSS
# VL: QSVLTQPPSISGAPGQRVTISCTGSSSNIGAGYDVQWHQQLPGTAPKLLIYGNSNRPSGVPDRFSGSKSGTSASLAITGLQAEDEADYYCQSYDSSLSGWVFGGGTKLTVL
# notes: full-length IgG
# B2: ADI-19428 (antibody, V domains shown)
# VH: EVQLLESGGGLVKPGGSLRLSCAASGFTFSSYSMNWVRQAPGKGLEWVSSISSSSSYIYYADSVKGRFTISRDNAKNSLYLQMNSLRAEDTAVYYCARDSCSGGSCYSPRFDPWGQGTLVTVSS
# VL: QSVLTQPPSVSGAPGQRVTISCTGSSSNIGAGYDVHWYQQLPGTAPKLLIYGNSNRPSGVPDRFSGSKSGTSASLAITGLQAEDEADYYCQSYDSTVVFGGGTKLTVL
# notes: full-length IgG
# B3: ADI-19431 (antibody, V domains shown)
# VH: EVQLVESGGGLVKPGGSLRLSCAASGFTFSSYSMNWVRQAPGKGLEWVSSISSSSSYIYYADSVKGRFTISRDNAKNSLYLQMNSLRAEDTAVYYCARELYDYVWGSYRDYWGQGTLVTVSS
# VL: B1 VL with S2P, V3G, I10V, Q36H, H38Y, W100S, L108V
# notes: full-length IgG
# B4: ADI-25478 (antibody, V domains shown)
# VH: EVQLLESGGGLVKPGGSLRLSCAASGFTFSSYSMNWVRQAPGKGLEWVSSISSSSSYIYYADSVKGRFTISRDNAKNSLYLQMNSLRAEDTAVYYCARLDYSNYYYYMDVWGKGTTVTVSS
# VL: B1 VL with S2P, I10V, Q36H, H38Y, W100Y, G104T
# notes: full-length IgG
# B5: ADI-19448 (antibody, V domains shown)
# VH: EVQLLESGGGLVKPGGSLRLSCAASGFTFSSYSMNWVRQAPGKGLEWVSSISSSSSYIYYADSVKGRFTISRDNAKNSLYLQMNSLRAEDTAVYYCARELLDPGIAAAGFDYWGQGTLVTVSS
# VL: QSVLTQPPSVSGAPGQRVTISCTGSSSNIGAGYDVHWYQQLPGTAPKLLIYGNSNRPSGVPDRFSGSKSGTSASLAITGLQAEDEADYYCQSYDSSLSVNYVFGTGTKVTVL
# notes: full-length IgG
# B6: ADI-25479 (antibody, V domains shown)
# VH: EVQLVESGGGLVKPGGSLRLSCAASGFTFSSYSMNWVRQAPGKGLEWVSSISSSSSYIYYADSVKGRFTISRDNAKNSLYLQMNSLRAEDTAVYYCARGGYSYGAYYYYYMDVWGKGTTVTVSS
# VL: B5 VL with V99G, N100Y, Y101W, T105G, V109L
# notes: full-length IgG
# B7: ADI-25480 (antibody, V domains shown)
# VH: B6 VH
# VL: B5 VL with V99G, N100Y, Y101W, T105G
# notes: full-length IgG; also called Ab 430
# B8: ADI-19459 (antibody, V domains shown)
# VH: QVQLVESGGGLVQPGGSLRLSCAASGFTVSSNYMSWVRQAPGKGLEWVSVIYSGGSTYYADSVKGRFTISRDNSKNTLYLQMNSLRAEDTAVYYCAREALGMDHWYFDLWGRGTLVTVSS
# VL: SYELMQPPSVSVAPGKTARITCGGNNIGSKSVHWYQQKPGQAPVLVVYDDSDRPSGIPERFSGSNSGNTATLTISRVEAGDEADYYCQVWDSSSDHPVFGGGTKVTVL
# notes: full-length IgG
# B9: ADI-24799 (antibody, V domains shown)
# VH: EVQLVESGGGLVKPGGSLRLSCAASGFTFSSYSMNWVRQAPGKGLEWVSSISSSSSYIYYADSVKGRFTISRDNAKNSLYLQMNSLRAEDTAVYYCAREGRDGYNYYFDYWGQGTLVTVSS
# VL: B1 VL with I10V, Q36H, H38Y, W100S
# notes: full-length IgG
# B10: ADI-24812 (antibody, V domains shown)
# VH: EVQLVESGGGLVQPGGSLRLSCAASGFSFSTYAMSWVRQAPGKGLEWVSAISGGGGSTYYADSVKGRFTISRDNSKNTLYLQVNSLRAEDTAVYYCARGGYCSSDSCYPFDFWGQGTLVTVSS
# VL: QPVLTQPPSVSVSPGQTAMITCSGDALPKQYAYWYQQKPGQAPVLVIYKDSERPSGIPERFSGSSSGTTVTLTISGVQAEDEADYYCQSADNSGSYAVFGGGTQLTVL
# notes: full-length IgG
# B11: ADI-24827 (antibody, V domains shown)
# VH: EVQLVESGGGLVQPGGSLRLSCAASGFTVSSNYMSWVRQAPGKGLEWVSVIYSDGSTYYADSVKGRFTISRHNSKNTLYLQMNSLRAEDTAVYYCARCSTYGDYIDWYFDLWGRGTLVTVSS
# VL: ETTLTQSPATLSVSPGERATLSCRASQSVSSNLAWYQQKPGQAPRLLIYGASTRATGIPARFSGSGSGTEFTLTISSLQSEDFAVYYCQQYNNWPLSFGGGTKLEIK
# notes: full-length IgG
# B12: ADI-24859 (antibody, V domains shown)
# VH: EVQLLESGGGLVKPGGSLRLSCAASGFTFSSYSMNWVRQAPGKGLEWVSSISSSSSYIYYADSVKGRFTISRDNAKNSLYLQMNSLRAEDTAVYYCARDGSPINWVSPFPFDYWGQGTLVTVSS
# VL: B1 VL with S2P, I10V, Q36H, H38Y, W100S, K107Q
# notes: full-length IgG; also called Ab 419
# B13: ADI-14334 (antibody, V domains shown)
# VH: EVQLVESGGGLVKPGGSLRLSCAASGVTVSSYYMTWVRQAPGKGLEFISDISSSSTYTNYADSVKGRFTISRDNAKSSLYLQMNNLRAEDTAVYYCARLGITVTGVGYFDLWGRGTLVTVSS
# VL: QPGLTQPPSVSGAPGQRVTISCTGSSSNIGAGYDVHWYQQLPGTAPKLLIHDNNNRPSGVPDRFSGSKSGTSASLAITGLQVEDEADYYCQSYDSSLSNYVFGTGTKLTVL
# notes: full-length IgG; also called Ab 2
# B14: ADI-14336 (antibody, V domains shown)
# VH: EVQLLESGGEVKKPGASVKVSCKASGYTFTNYGISWVRQAPGQGLEWMGWISAYNGNTNYAQKLQGRVTMTTDTSTSTAYMEVRRLRSDDTAVYYCAREPPVIAAGDFQHWGQGTLVTVSS
# VL: DIVMTQTPLSLPVTLGQPASISCRSSQSLVHSDTNIYLSWFQQRPGQSPRRLIYKVSNRDSGVPDRFSGSGSGTDFTLRISRVEAEDVGVYYCMQGTHWPPDFGQGTRLEIK
# notes: full-length IgG; also called Ab 4
# B15: ADI-19494 (antibody, V domains shown)
# VH: QVQLVQSGAEVKKPGSSVKVSCKASGGTFSSYVISWVRQAPGQGLEWMGGIIPIFGTTYYAQKFQDRVTITTDESTSTAYMELSSLRSEDTAVYYCARDLRYRYNAYDGADAFDIWGQGTTVTVSS
# VL: QSALTQPASVSGSPGQSITISCTGTSSDVGGYNYVSWYQQHPGKAPKLMIFEVSNRPSGVSNRFSGSKSGNTASLTISGLQAEDEADYYCTSYTKSNSVVFGGGTKLTVL
# notes: full-length IgG
# Target: T1, RSV prefusion F (preF), subtype B (respiratory syncytial virus subtype B)
# T1 construct: also called Prefusion subtype B
# Assay: BLI, IgG
row,Binder,Kd [nM]
1,B1,0.5
2,B2,16.7
3,B3,3.16
4,B4,6.43
5,B5,5.58
6,B6,4.29
7,B7,4.27
8,B8,1.45
9,B9,19
10,B10,7.58
11,B11,6.62
12,B12,4.95
13,B13,0.622
14,B14,2.65

# Target: T2, RSV postfusion F (postF), subtype A (respiratory syncytial virus subtype A, UniProt P03420 26-513)
# T2 construct: also called Postfusion subtype A; F deltaFP
# Assay: BLI
row,Binder,binding result
1,B1,no binding
2,B2,no binding
3,B3,no binding
4,B4,no binding
5,B5,no binding
6,B6,no binding
7,B7,no binding
8,B9,no binding
9,B10,no binding
10,B11,no binding
11,B12,no binding
12,B15,no binding

# Target: RSV F on RSV subtype A virus (mKate-RSV A2) (respiratory syncytial virus A2, UniProt P03420 26-574)
# Assay: cell-based or functional assay
row,Binder,Neut IC50 subtype A [µg/mL]
1,B1,0.01
2,B2,3.25
3,B3,4.35
4,B4,2.18
5,B5,9.64
6,B6,0.24
7,B7,0.17
8,B8,0.05
9,B9,11.5
10,B10,0.18
11,B11,0.02
12,B12,0.58
13,B15,0.86
14,B13,0.05
15,B14,0.07

# Target: RSV F on RSV subtype B virus (mKate-RSV B 18537) (respiratory syncytial virus B 18537, UniProt P13843 26-574)
# Assay: cell-based or functional assay
row,Binder,Neut IC50 subtype B [µg/mL]
1,B1,0.03
2,B3,0.17
3,B4,3.52
4,B6,0.29
5,B7,0.17
6,B8,0.1
7,B13,0.11
8,B14,0.09
